These results are taken from patent US20090104657A1 (BASF AKTIENGESELLSCHAFT, published 2009).

The series deals with the molecule itself. In words: native polyacrylamide gel electrophoresis; self-association of the subunit.

B1: protease according to the invention from Burkholderia glumae PG1, expressed from pETpro in E. coli BL21DE3 as a fusion protein with C-terminal 6xHis-tag (enzyme)
chain: MQQRGGSMSKKIAVLAVDEFEDSELVEPLRALRKAGAEVDVISQQAGEVKGFRHADKGEAVKVDRTFDEVREGEFDALLLPGGLLRGDNRMLPAAREFVTAGKPVFAICHGGWLLGSSGVINGRKLTAWPSLQDDVKNAGGEFYDQEVVRDKDQLITSRKPDDLPAFNREALRLLGAGA
notes: also called putative protease; ThiJ/PfpI protein; not shown: C-terminal 6xHis-tag from vector pET22b
On to B1, for which the binding result is on record as “binds”.
